# Measurements: patent US7884199B2, “HCV NS3-NS4 protease resistance mutants” (priority 2003, dated 2011)
# “And” between values parts separate entries of the source, which are not always exact repeats. Identical values can stand only once.
# Experiments:
# [1] = test system: wild-type HCV Con1 sub-genomic replicon cells; experiment: HCV replicon cell assay, 48-hour; assay type: cell-based, Hepatitis C virus; conditions: 48-hour assay
# Procedure: (§1) Cells containing hepatitis C virus (HCV) replicon were maintained in DMEM containing 10% fetal bovine serum (FBS), 0.25 mg per ml of G418, with appropriate supplements (media A).
# (§2) On day 1, replicon cell monolayer was treated with a trypsin:EDTA mixture, removed, and then media A was diluted into a final concentration of 100,000 cells per ml with. 10,000 cells in 100 ul were plated into each well of a 96-well tissue culture plate, and cultured overnight in a tissue culture incubator at 37° C.
# On day 2, compounds (in 100% DMSO) were serially diluted into DMEM containing 2% FBS, 0.5% DMSO, with appropriate supplements (media B). […]
# (§3) A Taqman real-time RT-PCR quantification assay was set up with two sets of specific primers and probe. […] Total RNA extractants from treated HCV replicon cells was added to the PCR reactions for quantification of both HCV and BVDV RNA in the same PCR well. […] The level of HCV RNA in each well was calculated according to a standard curve run in the same PCR plate. The percentage of inhibition or decrease of HCV RNA level due to compound treatment was calculated using the DMSO or no compound control as 0% of inhibition. The cytotoxicity of the compounds was measured using a mitochondrial enzyme-based cell viability assay, CellTiter 96 AQueous One Solution Cell Proliferation Assay (Promega).
# [2] = test system: wild type HCV replicon cells (high efficiency Con1 replicon); experiment: HCV replicon cell assay, 48-hour; assay type: cell-based, Hepatitis C virus; conditions: read-out: IC50
# Excerpt: (§4) During the course of generating of the HCV sub-genomic replicon stable cell lines, several different patterns of adaptive mutations were identified. One pattern has three substitutions in the HCV nonstructural proteins, which were introduced into the original pBR322-HCV-Neo plasmid by site-directed mutagenesis to generate the second-generation sub-genomic replicon plasmid, pBR322-HCV-Neo-mADE. When the T7 run-offRNA transcripts from the Sca I-linearized pBR322-HCV-Neo-mADE plasmid were electroporated into Huh7 cells, stable replicon cell colonies were formed at a much higher efficiency than the original Con1 replicon RNA. The resistance mutations identified in this study were introduced into the pBR322-HCV-Neo-mADE replicon plasmid by site-directed mutagenesis. Stable replicon cell lines were generated using the T7 transcripts derived from either wild type pBR322-HCV-Neo-mADE or the ones with the resistance mutations.
# as §1
# On day 1, replicon cell monolayer was treated with a trypsin:EDTA mixture, removed, and then media A was diluted into a final concentration of 100,000 cells per ml with. […]
# as §3, with “(Promega). […]” for “(Promega).”
# A156S HCV replicon cells = experiment: HCV replicon cell assay, 48-hour; assay type: cell-based, Hepatitis C virus; conditions: read-out: IC50
# Excerpt: as §4, §1, §2
# (§5) On day 2, compounds (in 100% DMSO) were serially diluted into DMEM containing 2% FBS, 0.5% DMSO, with appropriate supplements (media B). The final concentration of DMSO was maintained at 0.5% throughout the dilution series.
# (§6) Media on the replicon cell monolayer was removed, and then media B containing various concentrations of compounds was added. Media B without any compound was added to other wells as no compound controls.
# (§7) Cells were incubated with compound or 0.5% DMSO in media B for 48 hours in a tissue culture incubator at 37° C. At the end of the 48-hour incubation, the media was removed, and the replicon cell monolayer was washed once with PBS and stored at −80° C. prior to RNA extraction.
# (§8) Culture plates with treated replicon cell monolayers were thawed, and a fixed amount of another RNA virus, such as Bovine Viral Diarrhea Virus (BVDV) was added to cells in each well. RNA extraction reagents (such as reagents from RNeasy kits) were added to the cells immediately to avoid degradation of RNA. Total RNA was extracted according the instruction of manufacturer with modification to improve extraction efficiency and consistency. Finally, total cellular RNA, including HCV replicon RNA, was eluted and stored at −80° C. until further processing.
# (§9) A Taqman real-time RT-PCR quantification assay was set up with two sets of specific primers and probe. One was for HCV and the other was for BVDV. Total RNA extractants from treated HCV replicon cells was added to the PCR reactions for quantification of both HCV and BVDV RNA in the same PCR well. Experimental failure was flagged and rejected based on the level of BVDV RNA in each well. The level of HCV RNA in each well was calculated according to a standard curve run in the same PCR plate. The percentage of inhibition or decrease of HCV RNA level due to compound treatment was calculated using the DMSO or no compound control as 0% of inhibition. The cytotoxicity of the compounds was measured using a mitochondrial enzyme-based cell viability assay, CellTiter 96 AQueous One Solution Cell Proliferation Assay (Promega).
# (§10) Four HCV sub-genomic replicon stable cell lines, including the wild type (wt), and three mutants, A156S, D168V and D168A, were generated using the T7 RNA runoff transcripts from the corresponding high efficiency Con1 replicon plasmids.
# D168A HCV replicon cells = experiment: HCV replicon cell assay, 48-hour; assay type: cell-based, Hepatitis C virus; conditions: 48-hour assay
# Excerpt: as §4, §1, §2, §5, §6, §7, §8, §9, §10
# D168V HCV replicon cells = experiment: HCV replicon cell assay, 48-hour; assay type: cell-based, Hepatitis C virus; conditions: D168V replicon cells, 48-hour assay; read-out: Replicon IC50
# Excerpt: as §4, §1, §2, §5, §6, §7, §8, §9, §10
# A156T HCV replicon cells = experiment: HCV replicon cell assay, 48-hour; assay type: cell-based, Hepatitis C virus; conditions: 48-hour assay
# Excerpt: as §4, §1, §2, §5, §6, §7, §8, §9
# (§11) Table 6 summary: Three HCV sub-genomic replicon stable cell lines, including the wild-type, and two mutants, A156T and A156V, were generated using the T7 RNA runoff transcripts from the corresponding high efficiency Con 1 replicon plasmids.
# A156V HCV replicon cells = experiment: HCV replicon cell assay, 48-hour; assay type: cell-based, Hepatitis C virus
# Excerpt: as §4, §1, §2, §5, §6, §7, §8, §9, §11
# [3] = test system: series A (VX-950-resistant) replicon cells; experiment: HCV replicon cell assay, 48-hour; assay type: cell-based, Hepatitis C virus; conditions: series A (VX-950-resistant) replicon cells
# [4] = test system: series C (double-resistant) replicon cells; experiment: HCV replicon cell assay, 48-hour; assay type: cell-based, Hepatitis C virus; conditions: series C replicon cells at day 52
# Procedure: Culture plates with treated replicon cell monolayers were thawed, and a fixed amount of another RNA virus, such as Bovine Viral Diarrhea Virus (BVDV) was added to cells in each well. […]
# A Taqman real-time RT-PCR quantification assay was set up with two sets of specific primers and probe. […] Total RNA extractants from treated HCV replicon cells was added to the PCR reactions for quantification of both HCV and BVDV RNA in the same PCR well. […] The level of HCV RNA in each well was calculated according to a standard curve run in the same PCR plate. The percentage of inhibition or decrease of HCV RNA level due to compound treatment was calculated using the DMSO or no compound control as 0% of inhibition. The cytotoxicity of the compounds was measured using a mitochondrial enzyme-based cell viability assay, CellTiter 96 AQueous One Solution Cell Proliferation Assay (Promega). […]
# [5] = Substrate kinetic parameters of NS3 serine protease domains with KK-NS4A peptide and FRET substrate; assay type: biochemical, Hepatitis C virus
# Procedure: Enzymatic activity was determined using a modification of the assay described by Taliani et al., [Taliani et al., Anal. Biochem., 240, pp. 60-67 (1996)]. An internally quenched fluorogenic peptide (FRET substrate), Ac-DED(EDANS)EEαAbuψ[COO]ASK (DABCYL)-NH2, was purchased from AnaSpec Incorporated (San Jose, Calif.). The assay was run in a continuous mode in a 96-well microtiter plate format. The buffer was composed of 50 mM HEPES (pH 7.8), 100 mM NaCl, 20% glycerol, 5 mM DTT, and 25 μM KK4A peptide ([…]; SEQ ID NO:5). The KK4A peptide represents the central region of the NS4A cofactor from genotype 1a with lysine residues added for improved solubility [Landro et al. Biochemistry, 36, pp. 9340-9348 (1997)]. The reaction was initiated by the addition of the FRET substrate after a 10-min pre-incubation of the buffer components with 2 nM of the NS3 protease at room temperature. The reaction was monitored at 30° C. for 20 min using a Molecular Devices fmax fluorometric plate reader. The filters for excitation and emission wavelengths were 355 nm and 495 nm, respectively. For determination of substrate kinetic parameters, concentrations of the FRET peptide were varied from 0.5-7.0 μM. Inter-molecular quenching was not observed in this range. The substrate kinetic parameters, Km and Vmax, were determined by fitting the data to the Michaelis-Menten equation. […] This mixture was incubated for an additional 15 min at room temperature prior to an incubation with the FRET substrate for another 20 min at 30° C. Seven to eight concentrations of compound were assayed, and the resulting data were fitted to the integrated form of Morrison's equation for tight binding inhibition [J. F. Morrison, Biochim. Biophys. Acta, 185 pp. 269-286 (1969)]. All substrate and inhibitor data were fitted using Marquardt-Levenberg nonlinear regression with GraphPad Prism software.
# Five HCV NS3 serine protease domain proteins, including the genotype 1a and 1b wild-type (wt) proteases, and three mutants (A156S, D168V, and D168A) of the genotype 1b, were expressed and purified as described in Materials and Methods. The kcat and Km values of these NS3 proteases were determined using the KK-NS4A core peptide and the FRET substrate.
# Table 4 summary: Three HCV NS3 serine protease domain proteins of the Con1 strain, including the wild-type proteases and two mutants, A156T and A156V, were expressed and purified. The kcat and Km values of these NS3 proteases were determined using the KK-NS4A core peptide and the FRET substrate, and the average of two independent assays was shown.
# [6] = Table 1, FRET substrate, KK-NS4A core peptide
# [7] = Table 4, Con1 strain, average of two independent assays
Molecule,"Kcat [5, 6]","Km [5, 6]","Kcat [5, 7]","Km [5, 7]",also measured
BILN 2061 [reference compound],–,–,–,–,IC50 [1]: 1 nM; IC50 [2]: 4 nM; IC50 (A156S HCV replicon cells): 7 nM; IC50 (D168A HCV replicon cells): 1860 nM; IC50 (D168V HCV replicon cells): 5.09 µM and 4.65 µM; IC50 (A156T HCV replicon cells): 1090 nM; decrease in sensitivity conferred by the mutation (A156V HCV replicon cells): more than 1.400 fold; IC50 (A156V HCV replicon cells; 48-hour assay): 5.76 µM; IC50 [3]: ~10 nM; IC50 [4]: ~3000 nM; IC50 higher than against the series A replicon cells [4]: 300 fold
D168A (1b) (protein) APITAYSQQTRGLLGCIITSLTGRDRNQVEGEVQVVSTATQSFLATCVNGVCWTVYHGAGSKTLAGPKGPITQMYTNVDQDLVGWQAPPGARSLTPCTCGSSDLYLVTRHADVIPVRRRGDSRGSLLSPRPVSYLKGSSGGPLLCPSGHAVGIFRAAVCTRGVAKAVAFVPVESMETTMRSHHHHHH,0.3 s⁻¹,2000 nM,–,–,"change of substrate kinetic parameters (kcat, kcat/Km) compared with wild type ([5]; FRET substrate): less than 10 fold"
A156T (protein) APITAYSQQTRGLLGCIITSLTGRDRNQVEGEVQVVSTATQSFLATCVNGVCWTVYHGAGSKTLAGPKGPITQMYTNVDQDLVGWQAPPGARSLTPCTCGSSDLYLVTRHADVIPVRRRGDSRGSLLSPRPVSYLKGSSGGPLLCPSGHAVGIFRTAVCTRGVAKAVDFVPVESMETTMRSHHHHHH,–,–,0.2 s − 1,1300 nM,–
A156S (1b) (protein) APITAYSQQTRGLLGCIITSLTGRDRNQVEGEVQVVSTATQSFLATCVNGVCWTVYHGAGSKTLAGPKGPITQMYTNVDQDLVGWQAPPGARSLTPCTCGSSDLYLVTRHADVIPVRRRGDSRGSLLSPRPVSYLKGSSGGPLLCPSGHAVGIFRSAVCTRGVAKAVDFVPVESMETTMRSHHHHHH,0.6 s⁻¹,900 nM,–,–,–
"Wt (1b): wild-type HCV NS3 serine protease domain, genotype 1b (Con1 strain) (protein) APITAYSQQTRGLLGCIITSLTGRDRNQVEGEVQVVSTATQSFLATCVNGVCWTVYHGAGSKTLAGPKGPITQMYTNVDQDLVGWQAPPGARSLTPCTCGSSDLYLVTRHADVIPVRRRGDSRGSLLSPRPVSYLKGSSGGPLLCPSGHAVGIFRAAVCTRGVAKAVDFVPVESMETTMRSHHHHHH",1.0 s⁻¹,1100 nM,1.0 s − 1,1100 nM,–
D168V (1b) (protein) APITAYSQQTRGLLGCIITSLTGRDRNQVEGEVQVVSTATQSFLATCVNGVCWTVYHGAGSKTLAGPKGPITQMYTNVDQDLVGWQAPPGARSLTPCTCGSSDLYLVTRHADVIPVRRRGDSRGSLLSPRPVSYLKGSSGGPLLCPSGHAVGIFRAAVCTRGVAKAVVFVPVESMETTMRSHHHHHH,0.6 s⁻¹,1200 nM,–,–,–
A156V (protein) APITAYSQQTRGLLGCIITSLTGRDRNQVEGEVQVVSTATQSFLATCVNGVCWTVYHGAGSKTLAGPKGPITQMYTNVDQDLVGWQAPPGARSLTPCTCGSSDLYLVTRHADVIPVRRRGDSRGSLLSPRPVSYLKGSSGGPLLCPSGHAVGIFRVAVCTRGVAKAVDFVPVESMETTMRSHHHHHH,–,–,0.6 s − 1,2600 nM,–
